The text below walks through data of paper PMC3081289 (PLoS ONE, 2011).

This test addresses T1, human Epidermal Growth Factor Receptor 2 (HER2), extracellular domain (Homo sapiens, UniProt P04626).
T1 construct: HER2 (human Epidermal Growth Factor Receptor 2), extracellular domain (ECD); also called HER2-ECD; HER2 ECD; source: expressed and purified as described [54]
The experiment in a line: SPR; BIAcore 3000; VEGF_(8–109) or HER2 ECD immobilised on CM5 chips; serial dilutions of Fab in PBS with 0.05% Tween20 injected at 30 µl/min; 30°C; 1:1 Langmuir fit; KD from the ratio of kon and koff. The note with it: both partners purified.

Broadly, the Kd is the constant that tells how readily two partners part at equilibrium.

B1: bH1 Fab (HER2/VEGF dual specific variant of Herceptin) (Fab, V domains shown)
VH: not shown
VL: DIQMTQSPSSLSASVGDRVTITCRASQDIPRSISGYVAWYQQKPGKAPKLLIYWGSYLYSGVPSRFSGSGSGTDFTLTISSLQPEDFATYYCQQHYTTPPTFGQGTKVEIK
notes: Isolated from a phage library that randomised the light chain CDRs of Herceptin [22]
For B1, the Kd is 20 nM.
